# In PMC12582157:
# pKd: −log10 of the molar value.
# What was measured:
# [1] = target: T1, β-conglutin (Lupinus albus (white lupin)?) (UniProt Q53HY0); test: ELAA; details: Binding buffer, salt, pH and temperature not given in the material
# T1 sequence: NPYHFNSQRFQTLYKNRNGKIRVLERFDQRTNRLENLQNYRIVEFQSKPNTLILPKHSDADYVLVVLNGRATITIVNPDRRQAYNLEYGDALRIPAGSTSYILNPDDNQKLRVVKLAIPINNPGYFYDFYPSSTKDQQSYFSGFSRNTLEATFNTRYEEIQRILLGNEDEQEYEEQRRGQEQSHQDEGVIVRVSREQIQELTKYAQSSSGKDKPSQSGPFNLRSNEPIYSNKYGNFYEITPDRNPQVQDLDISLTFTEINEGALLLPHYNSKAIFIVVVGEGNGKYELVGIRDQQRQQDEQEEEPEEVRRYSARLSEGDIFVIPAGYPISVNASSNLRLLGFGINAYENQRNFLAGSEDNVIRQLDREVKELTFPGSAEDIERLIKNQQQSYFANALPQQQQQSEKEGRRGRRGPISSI
# [2] = target: T1, β-conglutin (Lupinus albus (white lupin)?); test: BLI; details: 1:1 model, Binding buffer, salt
# [3] = target: T1, β-conglutin (Lupinus albus (white lupin)?); test: MST; details: Binding buffer, salt, pH and temperature not given in the material
# [4] = target: T1, β-conglutin (Lupinus albus (white lupin)?); test: SPR; details: dA outside the 5' primer region (nt 24-94) replaced by indole-modified dA (dAEIn); Binding buffer, salt, pH and temperature not given in the material
# [5] = dA outside the 5' primer region (nt 24-94) replaced by indole-modified dA (dAEIn)
# [6] = all dA = dAEIn, 5' dC carries Cy5
sequence,measurement,setting,value
AGCTCCAGAAGATAAATTACAGGCAAGATCACCGTAGACGCGTCGAGAAGTGTGAGATCCTATGAAATGACCGCAACTAGGATACTATGACCCC [HB7],pKd,[1]; dA outside 5' primer = dAEIn,8.96
AGCTCCAGAAGATAAATTACAGGCCAAGATCTCGCGAGTTCCCAACAGGGCAGAGAGATGCCCGACACCAGTG [HB8_T1],pKd,"[2]; dA in nt 24-73 = dAEIn, pH and temperature not given in the material",9.22
same,pKd,[3]; dA in nt 24-73 = dAEIn,7.38
AGCTCCAGAAGATAAATTACAGGCCAAGATCTCGCGAGTTCCCAACAGGGCAGAGAGATGCCCGACACCAGTGCAACTAGGATACTATGACCCC [HB8],pKd,[4],7.04
same,pKd,"[2]; dA outside the 5' primer region (nt 24-94) replaced by indole-modified dA (dAEIn), pH and temperature not given in the …",9.05
same,pKd,[3]; [5],7.39
same,pKd,[1]; [5],9.22
AGCTCCAGAAGATAAATTACAGGCCAAGATCTCGCGAGTTCCCAACAGGGCAGAGAGATGCCCGACACCAGTGCAACTAGGATACTATGACCCC [HB8_M1],pKd,"[3]; dAEIn as in HB8 except three central positions following the primer, which are natural dA",6.87
AGCTCCAGAAGATAAATTACAGGCCAAGATCTCGCGAGTTCCCAACAGGGCAGAGAGATGCCCGACACCAGTGCAACTAGGATACTATGACCCC [HB8_M2],pKd,"[3]; dAEIn in nt 24-73, 3' 21 nt with natural dA",7.36
CCAAGATCTCGCGAGTTCCCAACAGGGCAGAGAGATGCCCGACACCAGTG [HB8_T3],pKd,[3]; [6],6.84
CCAAGATCTCGCGAGTTCCCAACAGGGCAGAGAGATGCCCGACACCAGTGCAACTAGGATACTATGACCCC [HB8_T2],pKd,[3]; [6],6.59
GATAAATTACAGGCCAAGATCTCGCGAGTTCCCAACAGGGCAGAGAGATGCCCGACACCAGTGCAACTAGGATACTATGACCCC [HB8_T4],pKd,[3]; dA after the 13 nt primer remainder = dAEIn,7.62
